A short description of series [1]: Stability of growth-stimulatory activity to acid, heat and DTT (read out in BALB/c 3T3 [3H]-thymidine assay). The class given is physicochemical. On the procedure: Conditioned medium was assayed for growth factor activity directly, as described below, using either fibroblasts (i.e., BALB/c mouse 3T3 cells), epithelial cells (i.e., human keratinocytes), or smooth muscle cells (i.e., bovine aortic smooth muscle cells, BASMC). Alternatively, CM was first fractionated by fast protein liquid chromatography (FPLC, Pharmacia, Piscataway, N.J.) by applying 500 ml of the CM to a TSK-heparin 5PW column (8×75 mm, TOSOHAAS, Philadelphia, Pa.). The column was washed with 10 column volumes of equilibration buffer (0.2M NaCl, 0.01M Tris-HCl, pH 7.5), and bound protein was eluted with a 40 ml linear gradient of 0.2-2M NaCl in 0.01M Tris-HCl , pH 7.4 at 1 ml/min. Fractions (2.5 ml) were tested for growth factor activity by measuring the effect of aliquots of the fractions on DNA synthesis in, or the proliferation of, BALB/c mouse 3T3 cells; such activity was monitored by assaying the incorporation of [^3 H]-thymidine into DNA and/or by measuring the increase in cell number. Measurement of DNA synthesis in BALB/c mouse 3T3 cells was performed as described by Shing et al. (223 Science 1296, 1984, hereby incorporated by reference). One unit of BALB/c mouse 3T3 stimulation activity was defined as the amount of growth factor required to stimulate half-maximal DNA synthesis in BALB/c mouse 3T3 cells under the conditions described in Shing et al. (supra). To measure DNA synthesis in bovine capillary endothelial cells, cells were trypsinized and re-plated sparsely (1×10^4 cells/well) with 400 μl of Dulbecco's modified Eagle's medium (DMEM, GIBCO, Grand Island, N.Y.) supplemented with 10% bovine calf serum (GIBCO, Grand Island, N.Y.) and antibiotics (100 units/ml penicillin and 100 μg/ml streptomycin sulfate, GIBCO, Grand Island, N.Y.) in 48-well plates (Costar, Cambridge, Mass.). After 24 hours of incubation, the medium was replaced with the same volume of DMEM supplemented with 2% bovine calf serum, antibiotics, 1 μM thymidine and 0.5% bovine serum albumin. After 24 hours of incubation, the test samples were added to the wells. Eighteen hours later, [^3 H]-thymidine (0.6 uCi/well, New England Nuclear, Wilmington, Del.) was added. After an additional 5 hours, each plate was treated by the same procedure as used to harvest the BALB/c mouse 3T3 cells to measure the incorporation of [^3 H]-thymidine into the DNA of the cells. To measure DNA synthesis in bovine aortic smooth muscle cells (from Dr. H. Weich, Children's Hospital, Boston), the cells were trypsinized and re-plated sparsely (1×10^4 cells/well) with 400 μl of DMEM supplemented with 10% Colorado calf serum (Colorado Serum Company) and antibiotics (100 units/ml penicillin and 100 μg/ml streptomycin sulfate, GIBCO, Grand Island, N.Y.) in 48-well plates. […]

The test system of series [2] is EGF receptors on A-431 cells. The experiment in a line: Competitive [125I]EGF binding to A-431 cells. The arrangement: species or system human. On the procedure:
Competitive binding assays were used to measure this interaction and were performed as follows.

Series [3] deals with bovine aortic smooth muscle cells. The experiment in a line: [3H]-thymidine incorporation into smooth muscle cell DNA. Format: cell-based. As to conditions: purification steps of HB-EHM from 8 L U-937 conditioned medium. The protocol:
(§1) Conditioned medium was assayed for growth factor activity directly, as described below, using either fibroblasts (i.e., BALB/c mouse 3T3 cells), epithelial cells (i.e., human keratinocytes), or smooth muscle cells (i.e., bovine aortic smooth muscle cells, BASMC). Alternatively, CM was first fractionated by fast protein liquid chromatography (FPLC, Pharmacia, Piscataway, N.J.) by applying 500 ml of the CM to a TSK-heparin 5PW column (8×75 mm, TOSOHAAS, Philadelphia, Pa.). The column was washed with 10 column volumes of equilibration buffer (0.2M NaCl, 0.01M Tris-HCl, pH 7.5), and bound protein was eluted with a 40 ml linear gradient of 0.2-2M NaCl in 0.01M Tris-HCl , pH 7.4 at 1 ml/min. Fractions (2.5 ml) were tested for growth factor activity by measuring the effect of aliquots of the fractions on DNA synthesis in, or the proliferation of, BALB/c mouse 3T3 cells; such activity was monitored by assaying the incorporation of [^3 H]-thymidine into DNA and/or by measuring the increase in cell number. Measurement of DNA synthesis in BALB/c mouse 3T3 cells was performed as described by Shing et al. (223 Science 1296, 1984, hereby incorporated by reference). One unit of BALB/c mouse 3T3 stimulation activity was defined as the amount of growth factor required to stimulate half-maximal DNA synthesis in BALB/c mouse 3T3 cells under the conditions described in Shing et al. (supra). […]
On the technique in general: Uptake of a labelled nucleoside into DNA is a usual measure of proliferation.

The test system of series [4] is bovine capillary endothelial cells. The experiment in a line: Proliferation / DNA synthesis of bovine capillary endothelial cells. The class given is cell-based. As to conditions: purified form. On the procedure: as §1
The next series has as its system EGF receptor. The experiment in a line: EGF receptor autophosphorylation in A-431 cells (anti-phosphotyrosine Western blot). Format: cell-based, human. As to conditions: 5 ng/ml, 15 minutes. On the procedure: This was shown by plating A-431 cells in 6-well plates and culturing in Dulbecco's Modified Eagle's Medium (DMEM) containing 10% fetal bovine serum and antibiotics. […] After 15 minutes, the cells were washed with ice-cold phosphate-buffered saline containing 0.4 mm EDTA, 10 mM Na-fluorate, 10 mM Na-pyrophosphate and 0.4 mM Na-orthovanadate, scraped and lysed in 100 μl of PI/RIPA buffer [1% NP-40 (Pierce, Rockford, Ill.), 1% deoxycholate (Aldrich, Milwaukee, Wis.), 0.1% SDS, 1% aprotinin (Boehringer-Mannheim, Indianapolis, Ind.), 1 mM PMSF (Pierce), 2 mM EDTA (Sigma), 10 mM Na-fluorate, (Sigma, St. Louis, Mo.), 10 mM Na-pyrophosphate (Baker, Phillipsburg, N.J.), 0.4 mM Na-orthovanadate, (Aldrich), 10 mM iodoacetamide (Aldrich) in phosphate buffered saline]. Thirty μl of supernatant clarified by spinning for a 5 minute period in a microfuge was analyzed by reducing SDS/polyacrylamide gel electrophoresis (6% polyacrylamide gel). […] A standard of phosphorylated EGF receptor was purchased from UBI (Lake Placid, N.Y.).

B1: HB-EHM: novel heparin binding growth factor with EGF-homologous segment, purified from U-937 lymphoma cell conditioned medium, about 22 kD (protein)
chain: RVTLSSKPQALATPNKEEHGKRKKKGKGLGKKRDPCLRKYKDFCIHGECKYVKELRAPSCICHPGYHGERCHGLS
modifications: O-linked glycosylation (suggested by O-glycanase treatment; the threonines predicted at positions 2 and 12 of the form first sequenced were not detected in protein sequencing)
Consider B1, for which the “growth-stimulatory activity after exposure to DTT” value in series [1] (5 mM DTT for 2 hours, 3T3 [3H]-thymidine readout) is recorded as “destroyed completely”. The “activity after acid treatment with glycine-HCl” value in series [1] (0.1M glycine-HCl, pH 2.5 for 2 hours) was “not lost”. Further, the “growth-stimulatory activity after heating” value in series [1] (90° C. for 5 minutes, 3T3 [3H]-thymidine readout) was “not destroyed”. In addition, the “growth-stimulatory activity after exposure to pH 2.5” value in series [1] (pH 2.5 for 2 hours, 3T3 [3H]-thymidine readout) was “resistant”. In series [2] (maximal competition, confluent A-431 cells), the “inhibition of the binding of [125I]EGF to A-431 cells” value was ~100%. The “binding to EGF receptors on A-431 cells” value in series [2] (purified HB-EHM) is recorded as “found to bind”. Besides, the “Maximal Stimulation” value in series [3] amounted to 0.5 ng/mL. Moreover, in series [4], the “proliferation of bovine capillary endothelial cells” value is “did not stimulate proliferation”. For the same molecule, the “autophosphorylation of the EGF receptor (170 kDa protein)” value with EGF receptor is “triggered autophosphorylation”.

For the origin of these results see patent US5811393A (The Childrens Medical Center Corp., priority 1993, dated 1998).
